# Measurements taken from US20230034768A1 (BIOSION, published 2023).
# Read-outs that look alike come from different tables or passages of the source.
# B1: humanized antibody huD1A1-V2 (antibody, human IgG4 S228P, kappa, V domains shown)
# VH: EVQLVESGGGLVKPGGSLRLSCAASGFTFRNYAMSWVRQAPGKGLEWVSGISSGGTYTYYPDTVKGRFTISRDNAKNSLYLQMNSLRAEDTAVYYCARRDYGDVYEWYFDVWGKGTTVTVSS
# VL: DIQMTQSPSSLSASVGDRVTITCKASQDVRTSIAWYQQKPGKAPKLLIYSASYRYTGVPSRFSGSGSGTDFTFTISSLQPEDIATYYCQQHYSSPWTFGGGTKVEIKR
# notes: Human IgG4 / kappa
# B2: humanized antibody huD1A1-V5 (antibody, human IgG4 S228P, kappa, V domains shown)
# VH: EVQLVESGGGLVKPGGSLRLSCAASGFTFRNYAMSWVRQAPGKGLEWVSGISSGGTYTYYPDTVKGRFTISRDNAKNSLYLQMNSLRAEDTAVYYCARRDYGDVYEWYFDVWGKGTTVTVSS
# VL: DIQMTQSPSSLSASVGDRVTITCKASQDVRTSIAWYQQKPGKSPKLLIYSASYRYTGVPSRFSGSGSGTDFTFTISSLQPEDLATYYCQQHYSSPWTFGGGTKVEIKR
# notes: Human IgG4 / kappa
# B3: Chimeric D1A1 (antibody, human IgG2, kappa, V domains shown)
# VH: EVQLVESGGGLVKSGGSLKLSCAASGFTFRNYAMSWVRQTPEKRLEWVAGISSGGTYTYYPDTVKGRFTISRDNARNTLFLQMSSLRSEDTAMYYCARRDYGDVYEWYFDVWGTGTTVTVSS
# VL: DIVMTQSHKFMSTSVGDRVSITCKASQDVRTSIAWYQQKPGQSPNLLIYSASYRYTGVPDRFTGSGSGTDFTFTISSVQAEDLAVYYCQQHYSSPWTFGGGTKLEIKR
# notes: Mouse variable regions on human IgG2 / kappa; also called chimeric antibody D1A1; chimeric D1A1 antibody
# Key:
# [1] = biological target: T1, biotin-labeled human RANKL-Fc protein (prepared in house, SEQ ID NO.: 40) (human, biotin-labeled (sites not given)); assay: capture ELISA: captured antibody, biotin-labeled human RANKL-Fc, OD(450-630)
# T1 construct: also called RANKL-Fc-biotin
# Description: (§1) Plates were washed once with wash buffer (PBS+0.05% v/v Tween-20, PBST) and then blocked with 200 μl/well blocking buffer (5% w/v non-fatty milk in PBST) for 2 hours at 37° C. […] After a final wash, plates were incubated with 100 μl/well ELISA substrate TMB (Innoreagents, Cat #TMB-S-002) at room temperature. The reaction was stopped in 3-10 minutes with 50 μl/well 1M H₂SO₄, and the absorbance of each well was read on a microplate reader using dual wavelengths mode with 450 nm for TMB and 630 nm as the reference wavelength. The OD (450-630) values were plotted against antibody concentration. Data were analyzed using Graphpad Prism software and EC₅₀ values were reported.
# For the capture ELISA, 96-well micro plates were coated with 2 μg/ml goat anti-human IgG (AffiniPure Goat Anti-Human IgG, F(ab′)₂ fragment specific, Jackson Immunoresearch, Cat #109-005-097) instead of AffiniPure Goat Anti-Mouse IgG, Fcγ fragment specific, 100 μl/well.
# [2] = biological target: T2, human RANKL-his protein (prepared in-house with SEQ ID NO: 43) (human, UniProt O14788 136-317); assay: Octet BLI, antibody from cell supernatant captured, human RANKL-his in solution
# T2 construct: also called recombinant human RANKL-his
# T2 chain: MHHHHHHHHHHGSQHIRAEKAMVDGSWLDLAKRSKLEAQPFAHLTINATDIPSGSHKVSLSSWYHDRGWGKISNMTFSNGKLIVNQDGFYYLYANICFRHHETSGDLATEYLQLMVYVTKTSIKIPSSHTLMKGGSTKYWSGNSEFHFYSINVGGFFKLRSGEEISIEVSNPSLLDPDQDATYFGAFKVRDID
# Description: (§2) Briefly, AHC/AMC biosensors (anti-human/anti-mouse IgG Fc capture, ForteBio) were presoaked with 10 mM glycine (pH 1.5) for 3 seconds, and then dipped in a well with running buffer (0.5% w/v BSA in PBST) for 3 seconds, the soaking and dipping steps were repeated for three times. […] A new baseline was run for 180 seconds in another well with HBS-EP⁺. […] Finally, sensors were presoaked with 10 mM glycine (pH 1.5) for 3 seconds, and then dipped in a well with running buffer for 3 seconds, the soaking and dipping steps repeated for three times. The association and dissociation curves were fit to a 1:1 Langmuir binding model using Octet evaluation software.
# (§3) The chimeric antibody when tested was in HBS-EP⁺ at 5 μg/ml concentration.
# [3] = biological target: T2, human RANKL-his protein (prepared …); assay: Biacore T200 SPR, antibody captured by anti-human IgG, human RANKL-his in flow, 1:1 fit
# Description: (§4) Briefly, goat anti-human IgG (GE healthcare, Cat #BR100839, Human Antibody Capture Kit) was covalently linked to a CM5 chip (carboxy methyl dextran coated chip from GE healthcare #BR10030) via primary amines, using a standard amine coupling kit provided by Biacore. Un-reacted moieties on the biosensor surface were blocked with ethanolamine. […] The antigen-antibody association kinetics was followed for 2 minutes and the dissociation kinetics was followed for 10 minutes. The association and dissociation curves were fit to a 1:1 Langmuir binding model using BIAcore evaluation software.
# [4] = biological target: T1, biotin-labeled human RANKL-Fc protein …; assay: competitive ELISA: antibody blocks biotin-labeled human RANKL-Fc binding to coated benchmark denosumab
# [5] = biological target: T1, biotin-labeled human RANKL-Fc protein …; assay: competitive ELISA: antibody blocks biotin-labeled human RANKL-Fc binding to coated human RANK-Fc
# Description: Briefly, human RANK-Fc proteins (prepared in house, SEQ ID NO.: 41) were coated on 96-well micro plates at 2.0 μg/mL in PBS, 100 μl/well, and incubated overnight at 4° C. The next day, plates were washed with wash buffer (PBS+0.05% w/v Tween-20, PBST), and blocked with 5% w/v non-fatty milk in PBST, 200 μl/well, for 2 hours at 37° C.
# Plates were washed 4 times using wash buffer, and added and incubated with 100 μl/well of streptavidin conjugated HRP (1:10000 dilution in PBST buffer, Jackson ImmunoResearch Laboratories, Inc., Cat #016-030-084) for 40 minutes at 37° C. Plates were washed again using wash buffer. Finally, TMB was added and the reaction was stopped using 1M H₂SO₄, and the absorbance of each well was read on a microplate reader using dual wavelengths mode with 450 nm for TMB and 630 nm as the reference wavelength. The OD (450-630) values were plotted against antibody concentration. Data were analyzed using Graphpad Prism software and IC₅₀ values were reported.
# [6] = biological target: T3, cynomolgus monkey RANKL-his protein (prepared in-house with SEQ ID NO.:42) (cynomolgus monkey, UniProt O14788 136-317 (human entry), limits assumed); assay: Biacore T200 SPR, antibody captured by anti-human IgG, cynomolgus RANKL-his in flow, 1:1 fit
# T3 construct: also called Cynomolgus RANKL
# T3 chain: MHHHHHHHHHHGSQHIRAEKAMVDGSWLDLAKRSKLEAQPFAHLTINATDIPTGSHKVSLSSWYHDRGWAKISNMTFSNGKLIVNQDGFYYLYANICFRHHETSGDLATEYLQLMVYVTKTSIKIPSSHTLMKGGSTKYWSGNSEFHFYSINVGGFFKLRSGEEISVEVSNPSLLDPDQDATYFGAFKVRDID
# Description: as §4
# [7] = biological target: T4, Recombinant human RANKL-his protein (R&D, Cat #6449-TEC-010) (human, UniProt O14788 140-317, limits assumed); assay: cell-based or functional assay
# T4 sequence (looked up): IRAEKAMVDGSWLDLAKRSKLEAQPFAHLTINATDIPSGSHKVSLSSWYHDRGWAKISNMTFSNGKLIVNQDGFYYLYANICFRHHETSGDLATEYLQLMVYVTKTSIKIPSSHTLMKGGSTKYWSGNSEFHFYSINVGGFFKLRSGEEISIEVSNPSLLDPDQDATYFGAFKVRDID
# [8] = biological target: T4, Recombinant human RANKL-his protein …; assay: cell-based or functional assay; remark: listed apart in the source
# [9] = biological target: T1, biotin-labeled human RANKL-Fc protein …; assay: competitive ELISA: antibody blocks biotin-labeled human RANKL-Fc binding to coated human RANK-Fc; remark: listed apart in the source
# [10] = biological target: T1, biotin-labeled human RANKL-Fc protein …; assay: competitive ELISA: antibody blocks biotin-labeled human RANKL-Fc binding to coated benchmark denosumab; remark: listed apart in the source
# [11] = biological target: T1, biotin-labeled human RANKL-Fc protein …; assay: capture ELISA: captured antibody, biotin-labeled human RANKL-Fc, OD(450-630); remark: listed apart in the source
# Description: as §1
# (§5) Cell supernatants were harvested after six days in shaking flasks, spun down to pellet cells, and then chimeric antibodies were purified from cell supernatants as described above. The purified antibodies were tested in the capture ELISA, competitive ELISA assay and Octet affinity test following the protocols in the foregoing Examples.
# [12] = biological target: T4, Recombinant human RANKL-his protein …; assay: cell-based or functional assay; remark: listed apart in the source
# [13] = biological target: T2, human RANKL-his protein (prepared …); assay: Octet BLI, chimeric antibody at 5 ug/ml captured, human RANKL-his in solution
# Description: as §2, §3
# [14] = biological target: T2, human RANKL-his protein (prepared …); assay: Octet BLI, antibody captured, human RANKL-his in solution
# Description: as §2, §5
Binder,EC50 [1] [nM],Kd [2] [pM],koff [2] [s⁻¹],kon [2] [M⁻¹ s⁻¹],Kd [3] [nM],IC50 [4] [nM],IC50 [5] [nM],Kd [6] [nM],"IC50, RANKL-induced osteoclast differentiation of RAW264.7 cells (pNPP, OD405) [7] [nM]","IC50, RANKL-induced osteoclast differentiation of RAW264.7 cells (pNPP, OD405) [8] [nM]",IC50 [9] [nM],IC50 [10] [nM],EC50 [11] [nM],"IC50, RANKL-induced osteoclast differentiation of RAW264.7 cells (pNPP, OD405) [12] [nM]",Kd [13] [pM],koff [13] [s⁻¹],kon [13] [M⁻¹ s⁻¹],Kd [14] [nM]
B1,0.2,< 1,< 1e-07,112000,0.134,0.444,0.154,0.42,~1.45,~1.42,,,,,,,,
B2,0.182,< 1,< 1e-07,120000,0.179,0.338,0.139,0.414,1.51,~1.42,,,,,,,,
B3,0.257,,,,0.149,0.441,0.155,0.42,~1.42,,0.112,0.473,0.624,1.39,< 1,< 1e-07,128000,0.197
